Assay results taken from the RNAGym collection of RNA variant scans (doi:10.7554/elife.80360).

B1: HDV Ribozyme (parent)
chain: GGCCGGCAUGGUCCCAGCCUCCUCGCUGGCGCCGGCUGGGCAACAUUCCGAGGGGACCGUCCCCUCGGUAAUGGCGAAUGGGACCCA

Variants of: B1
Experiment: self-cleavage, relative activity (ratio to wild type); higher = more cleavage; co-transcriptional

Variant	self-cleavage
A45U G50A	0.844
A45G C86A	0.639
A45G C86G	0.95
U46A	0.794
U46G	0.793
U46C	0.815
A45U C62A	0.791
A45U C62U	0.923
A45U C85A	0.88
A45C U65C	0.646
A45C U65A	0.87
U46G C66U	0.673
U46C G53C	0.739
U46C G53A	0.796
U46G G55A	0.649
U46G G55C	0.98
U46C C62A	0.623
U46C C62U	0.918
U46G U47A	0.8
U46G U47C	0.623
A45G G73C	0.388
A45G G73U	0.415
U46A C75G	0.0594
U46C A51U	0.846

Variant	self-cleavage
U46C A51C	0.504
U46C A51G	0.639
U46G G68U	0.554
U46G G68C	0.396
A45G G59U	0.931
A45G G59C	1.02
U46C G59U	0.962
U46C G59A	0.776
U46C C57U	0.705
A45G A70G	0.997
A45G A70C	0.88
A45G A70U	1.09
U46G C63A	0.415
U46G C63G	0.293
A45U G80U	0.153
U46A G50C	0.597
U46A G50U	0.73
A45U G67U	0.801
U46A G53U	0.712
U46G C48A	0.903
A45U C57U	0.712
A45U A70U	0.989
A45U U69A	0.77
U46A C86G	0.831

Variant	self-cleavage
U46G G54C	0.453
U46G G54A	0.656
U46G G54U	0.443
U46A C48U	0.739
U46A C48G	0.802
U46A G73U	0.0811
U46G G67C	0.208
U46A U79G	0.322
U46A U79A	0.504
A45U C86G	0.795
A45U C86U	0.95
A45U C86A	0.77
U46C G68A	0.415
U46C A78U	0.302
U47A A56U	0.856
U47A A56C	0.782
A45G G54U	1.17
A45G G53C	1.05
A45G G53U	0.884
A45U G74A	0.513
A45U G74C	0.0923
A45U A51G	0.965
A45U A51C	0.796
A45C U69C	0.623

Variant	self-cleavage
A45C U69G	0.974
A45G A77G	0.867
A45G A77C	0.18
U46A G82A	0.156
A45U A78G	0.571
U46C A83U	0.554
U46G A71C	0.982
U46G A71G	0.772
A45G C57U	1.11
U46G A77G	0.415
U46G A77U	0.0831
U47A	0.958
U46G C61G	0.649
U46G C61U	0.332
U46A C62U	0.712
U46A C62A	0.543
U46C G81C	0.302
U46A C49G	0.415
U46A C49U	0.739
A45U G52A	0.798
A45U G52U	0.674
A45U G52C	0.743
U46A G54C	0.706
U46G C75U	0.107

Variant	self-cleavage
U46A U60A	0.751
U46A U65C	0.65
U46A U65G	0.675
U46A U65A	0.914
U46G C85A	0.831
U46G C85U	0.831
U46G U60A	0.453
U46G U60G	0.415
A45G A56U	1.12
U46A G74C	0.297
U46C U79C	0.432
U46C U79G	0.554
A45G	0.918
A45U	0.832
A45G C75A	0.249
A45G C75U	0.208
A45G C75G	0.0536
U46A A78U	0.156
U46A A78G	0.277
U46G G50A	0.525
U46G G50U	0.458
A45U U60C	0.911
A45U U60A	0.723
A45U C61U	0.876

Variant	self-cleavage
U46C G54C	1.04
U46C G54U	0.786
U46C A71G	1.2
U46C A71C	0.772
U46C A71U	0.767
U46A C85G	0.575
U46A C85A	0.7
U46G G82C	0.158
U46G G82U	0.229
A45U A56G	0.806
A45U A56U	0.831
U46A C84U	0.397
U46A C84A	0.629
A45G A87C	1.11
A45G A87G	0.868
A45G G68C	0.767
A45G G74U	0.543
U46G A51C	0.755
U46G A51G	0.739
A45U G59C	0.969
A45U G59U	0.903
A45U G59A	1
A45G C61G	0.467
A45G C61U	0.888

Variant	self-cleavage
A45G C61A	1.15
A45C U60G	0.63
A45C U60C	0.573
U46C G52U	1.05
A45U C49G	0.458
A45U C49A	0.748
U46G G80U	0.202
U46G G80C	0.185
A45G U60C	0.831
U46G A83C	0.293
U46G A83U	0
U46A C66G	1.05
U46G G81C	0.175
U46G G81A	0.222
U46A G55A	0.716
A45G C64U	0.889
A45G C64G	0.591
U46A C63G	0.723
A45U C48A	0.7
A45U C48U	0.79
U46A C64G	0.38
U46A C64A	0.554
U46A C64U	0.649
